Experiments:
EMB1006-MBP [1] = target: T1, EMB1006-MBP (Arabidopsis thaliana, UniProt Q9FGR7 44-723); test: competition
T1 sequence: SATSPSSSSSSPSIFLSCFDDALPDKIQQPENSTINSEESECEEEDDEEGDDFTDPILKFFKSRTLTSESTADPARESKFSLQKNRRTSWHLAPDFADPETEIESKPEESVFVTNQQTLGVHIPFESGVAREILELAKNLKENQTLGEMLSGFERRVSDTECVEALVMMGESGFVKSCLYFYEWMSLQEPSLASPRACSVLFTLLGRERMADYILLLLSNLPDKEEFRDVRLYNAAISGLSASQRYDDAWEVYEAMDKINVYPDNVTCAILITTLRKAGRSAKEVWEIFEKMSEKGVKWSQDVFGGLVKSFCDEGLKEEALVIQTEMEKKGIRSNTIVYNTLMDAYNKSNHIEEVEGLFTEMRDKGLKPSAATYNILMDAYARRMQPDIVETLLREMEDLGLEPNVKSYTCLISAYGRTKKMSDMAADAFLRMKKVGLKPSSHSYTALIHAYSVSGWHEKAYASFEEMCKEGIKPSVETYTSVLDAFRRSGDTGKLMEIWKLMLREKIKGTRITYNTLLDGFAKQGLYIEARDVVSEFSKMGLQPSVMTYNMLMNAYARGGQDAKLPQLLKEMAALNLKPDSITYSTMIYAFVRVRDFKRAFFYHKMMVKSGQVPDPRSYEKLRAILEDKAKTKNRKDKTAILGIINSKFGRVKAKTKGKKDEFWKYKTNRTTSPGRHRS

EMB976-MBP = target: T2, EMB976-MBP (Arabidopsis thaliana, UniProt O04647 1-1038); test: EMSA
T2 sequence: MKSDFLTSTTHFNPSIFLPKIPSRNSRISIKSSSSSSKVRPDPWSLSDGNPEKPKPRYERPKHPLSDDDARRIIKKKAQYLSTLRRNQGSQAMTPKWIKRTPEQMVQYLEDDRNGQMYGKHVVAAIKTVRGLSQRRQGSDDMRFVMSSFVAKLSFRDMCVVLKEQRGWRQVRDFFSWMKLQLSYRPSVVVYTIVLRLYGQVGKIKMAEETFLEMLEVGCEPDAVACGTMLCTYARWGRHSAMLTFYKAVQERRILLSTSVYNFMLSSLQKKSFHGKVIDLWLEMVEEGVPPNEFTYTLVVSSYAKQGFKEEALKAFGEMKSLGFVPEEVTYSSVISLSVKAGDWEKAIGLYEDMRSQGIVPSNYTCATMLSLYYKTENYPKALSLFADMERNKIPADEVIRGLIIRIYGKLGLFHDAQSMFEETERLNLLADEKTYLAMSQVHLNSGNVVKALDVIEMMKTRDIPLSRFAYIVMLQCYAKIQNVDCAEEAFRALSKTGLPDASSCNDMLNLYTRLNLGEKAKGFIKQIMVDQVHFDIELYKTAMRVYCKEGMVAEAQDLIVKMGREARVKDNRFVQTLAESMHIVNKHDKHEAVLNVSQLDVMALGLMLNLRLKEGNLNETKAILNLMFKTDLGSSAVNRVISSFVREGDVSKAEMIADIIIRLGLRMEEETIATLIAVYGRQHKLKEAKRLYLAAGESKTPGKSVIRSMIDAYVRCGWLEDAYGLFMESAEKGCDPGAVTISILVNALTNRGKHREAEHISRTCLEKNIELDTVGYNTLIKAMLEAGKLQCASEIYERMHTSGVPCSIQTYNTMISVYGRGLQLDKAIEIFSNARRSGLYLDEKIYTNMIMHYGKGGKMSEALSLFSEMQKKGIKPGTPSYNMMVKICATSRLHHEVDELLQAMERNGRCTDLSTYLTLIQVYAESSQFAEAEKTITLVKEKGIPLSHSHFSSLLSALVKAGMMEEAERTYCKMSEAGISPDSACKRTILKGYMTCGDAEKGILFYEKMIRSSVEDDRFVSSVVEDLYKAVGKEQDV

EMB1006-MBP [2] = target: T1, EMB1006-MBP; test: EMSA

AAUUACCAAACGUAUAGCAUUCC (ssRNA) [clpP1-exon2-Cold]
binding result (EMB1006-MBP [1]): binds

GAAGAGGUUUUUCAAAUGAUA (ssRNA) [Cy5-clpP1-intron2-976]
binding result (EMB976-MBP): no binding

AAUUACCAAACGUAUAGCAUUCC (ssRNA) [Cy5-clpP1-exon2]
binding result (EMB1006-MBP [2]): binds

UUUUUUAGAUUAAAAAAAAAUUCG (ssRNA) [clpP1-intron2-Cold]
binding result (EMB1006-MBP [1]): no binding

— article doi:10.1101/2023.12.07.570680
